Here are results for one substance from patent US20240254458A1.

For this test, the target named is LexA408-DBD-iLight V464L-msfGFP (E. coli; Idiomarina sp.). Description: cell-based or functional assay.

Consider LexA408-DBD-iLight V464L-msfGFP, for which the inhibition efficiency of the gene expression (mCherry reporter, E. coli, 660 nm) came out at 1.6 fold.
